Reference: patent US20240117019A1

Columns and labels:
[1] = target: PhtD 1-170 (Streptococcus pneumoniae); test: ELISA on coated MBP-PhtD fragment, OD405
[2] = target: PhtD 1-343 (Streptococcus pneumoniae); test: ELISA on coated MBP-PhtD fragment, OD405
[3] = target: PhtD 168-343 (Streptococcus pneumoniae); test: ELISA on coated MBP-PhtD fragment, OD405
[4] = target: recombinant His-tagged full-length pneumococcal histidine triad protein D (PhtD) from strain TCH8431 (serotype 19A) (Streptococcus pneumoniae strain TCH8431 (serotype 19A)); test: ELISA on coated recombinant PhtD, OD405
[5] = target: recombinant His-tagged full-length pneumococcal histidine triad protein D (PhtD) from strain TCH8431 (serotype 19A) (Streptococcus pneumoniae strain TCH8431 (serotype 19A)); test: ELISA on coated recombinant PhtD, non-linear regression fit
[6] = target: PhtD, WU2 (3) (Streptococcus pneumoniae); test: flow cytometry on whole bacteria, 3 (WU2), mAb 10 µg/ml, APC anti-human IgG Fc; no mAb 1.3
[7] = target: PhtD protein of pneumococcal strain TIGR4 (serotype 4), native, in bacterial lysates (Streptococcus pneumoniae strain TIGR4 (serotype 4)); test: flow cytometry on whole bacteria, 4 (TIGR4), mAb 10 µg/ml, APC anti-human IgG Fc; no mAb 0.1
[8] = target: PhtD, serotype 2 (Streptococcus pneumoniae); test: flow cytometry on whole bacteria, serotype 2, mAb 10 µg/ml, APC anti-human IgG Fc; no mAb 0.6
[9] = target: PhtD, serotype 6C (Streptococcus pneumoniae); test: flow cytometry on whole bacteria, serotype 6c, mAb 10 µg/ml, APC anti-human IgG Fc; no mAb 1.3
[10] = target: PhtD, serotype 6D (Streptococcus pneumoniae); test: flow cytometry on whole bacteria, serotype 6d, mAb 10 µg/ml, APC anti-human IgG Fc; no mAb 0.4
[11] = target: PhtD, serotype 9N (Streptococcus pneumoniae); test: flow cytometry on whole bacteria, serotype 9N, mAb 10 µg/ml, APC anti-human IgG Fc; no mAb 1.5
[12] = target: PhtD, serotype 11A (Streptococcus pneumoniae); test: flow cytometry on whole bacteria, serotype 11A, mAb 10 µg/ml, APC anti-human IgG Fc; no mAb 0.6
[13] = target: PhtD, serotype 12F (Streptococcus pneumoniae); test: flow cytometry on whole bacteria, serotype 12F, mAb 10 µg/ml, APC anti-human IgG Fc; no mAb 0.3
[14] = target: PhtD protein of pneumococcal strain TCH8431 (serotype 19A), native, in bacterial lysates (Streptococcus pneumoniae strain TCH8431 (serotype 19A)); test: flow cytometry on whole bacteria, 19A (TCH8431), mAb 10 µg/ml, APC anti-human IgG Fc; no mAb 0.4
[15] = target: recombinant His-tagged full-length pneumococcal histidine triad protein D (PhtD) from strain TCH8431 (serotype 19A) (Streptococcus pneumoniae strain TCH8431 (serotype 19A)); test: competitive BLI, His-tagged PhtD on anti-penta-HIS tips; first mAb PhtD6, then second mAb, each 100 µg/mL; grey cell
[16] = target: recombinant His-tagged full-length pneumococcal histidine triad protein D (PhtD) from strain TCH8431 (serotype 19A) (Streptococcus pneumoniae strain TCH8431 (serotype 19A)); test: competitive BLI, His-tagged PhtD on anti-penta-HIS tips; first mAb PhtD3, then second mAb, each 100 µg/mL; black cell
[17] = target: recombinant His-tagged full-length pneumococcal histidine triad protein D (PhtD) from strain TCH8431 (serotype 19A) (Streptococcus pneumoniae strain TCH8431 (serotype 19A)); test: competitive BLI, His-tagged PhtD on anti-penta-HIS tips; first mAb PhtD7, then second mAb, each 100 µg/mL; white cell
[18] = target: recombinant His-tagged full-length pneumococcal histidine triad protein D (PhtD) from strain TCH8431 (serotype 19A) (Streptococcus pneumoniae strain TCH8431 (serotype 19A)); test: competitive BLI, His-tagged PhtD on anti-penta-HIS tips; first mAb PhtD8, then second mAb, each 100 µg/mL; white cell

B1: human monoclonal antibody PhtD3 (antibody, V domains shown)
VH: QVQLVQSGPDVKKPGSSVKVSCKASGAAFESFAFAWVRQAPGQGFEWMGRIIPILETRDYAEKFQGRMTMTTDESTATAYMELNSLRFEDTAVYFCARDGHIMRTTLSDAALDVWGQGTTVIVSS
VL: DIVMTQSPVTLSLSPGERATLSCRASQSLTDNYLAWYQQKPGQAPRLLIYAASTRATGIPDRISGSGSGTDFTLTISRVEPEDFAMFYCQQYQNSPFTFGGGTTVEIK
For B1, the EC50 (read off the curve) [1] was 0.1 µg/mL, the EC50 (read off the curve) [2] was 0.1 µg/mL and the EC50 (read off the curve) [3] was 0.1 µg/mL. It also gave an EC50 (read off the curve) [4] of 0.1 µg/mL, an EC50 [5] of 0.045 µg/mL and a % APC+ [6] of 16%. For the same binder, the % APC+ [7] was 7.2%, the % APC+ [8] was 3.2% and the % APC+ [9] was 4.2%. For the same binder, the % APC+ [10] was 2.4%, the % APC+ [11] was 28.1% and the % APC+ [12] was 19.6%. The % APC+ [13] was 45.8%, the % APC+ [14] was 18.3% and the percent binding of the second mAb in the presence of the first mAb [15] was 47%. For the same binder, the percent binding of the second mAb in the presence of the first mAb [16] was 9%, the percent binding of the second mAb in the presence of the first mAb [17] was 81% and the percent binding of the second mAb in the presence of the first mAb [18] was 77%.

B2: PhtD3-IgG2a (recombinant chimera of mAb PhtD3 with a mouse IgG2a Fc region) (antibody, V domains shown)
VH: B1 VH
VL: B1 VL
In the case of B2, the EC50 (read off the curve) [4] is reported as 0.05 µg/mL.
